According to US20140087995A1 (published 2014):
Numbered stars: 1 amine (or outer) side, 2 acyl side, 3 side chain; on linkers, the order of the positions; unused ones are H or OH. Bridge positions count the residues as written; N and C are the ends. Side chains are listed from the residue outwards. Ends that are not written are not given here. * marks the point of attachment. C20 diacid = O=C(O)CCCCCCCCCCCCCCCCCCC(=O)*; γGlu = O=C(O)[C@H](CCC(=O)[*:2])N[*:1]; AEEA = NCCOCCOCC(=O)O

T1: human calcitonin receptor (human, UniProt P30988 25-474)
T1 construct: whole, on cells; Membranes of a BHK tk'ts 13 cell line stably transfected with the human calcitonin receptor; also called hCTR; hCT
T1 sequence (looked up): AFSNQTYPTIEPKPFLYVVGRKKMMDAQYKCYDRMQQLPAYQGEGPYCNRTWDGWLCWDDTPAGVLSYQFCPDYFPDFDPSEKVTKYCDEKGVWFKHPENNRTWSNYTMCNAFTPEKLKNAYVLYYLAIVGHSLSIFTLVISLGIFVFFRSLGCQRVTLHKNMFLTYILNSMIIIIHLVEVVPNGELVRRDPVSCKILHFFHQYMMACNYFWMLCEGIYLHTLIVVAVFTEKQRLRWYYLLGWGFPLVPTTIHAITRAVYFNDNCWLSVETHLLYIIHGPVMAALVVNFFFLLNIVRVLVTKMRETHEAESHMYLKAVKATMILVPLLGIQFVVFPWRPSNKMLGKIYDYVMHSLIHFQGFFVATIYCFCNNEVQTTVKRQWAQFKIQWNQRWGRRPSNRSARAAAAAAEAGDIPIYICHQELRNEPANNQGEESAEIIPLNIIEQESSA

T2: rat calcitonin receptor (rat, UniProt P32214 25-516)
T2 construct: whole, on cells; Membranes of BHK tk'ts 13 cells transiently transfected with the rat calcitonin receptor; also called rCTR; rat calcitonin (a) receptor
T2 sequence (looked up): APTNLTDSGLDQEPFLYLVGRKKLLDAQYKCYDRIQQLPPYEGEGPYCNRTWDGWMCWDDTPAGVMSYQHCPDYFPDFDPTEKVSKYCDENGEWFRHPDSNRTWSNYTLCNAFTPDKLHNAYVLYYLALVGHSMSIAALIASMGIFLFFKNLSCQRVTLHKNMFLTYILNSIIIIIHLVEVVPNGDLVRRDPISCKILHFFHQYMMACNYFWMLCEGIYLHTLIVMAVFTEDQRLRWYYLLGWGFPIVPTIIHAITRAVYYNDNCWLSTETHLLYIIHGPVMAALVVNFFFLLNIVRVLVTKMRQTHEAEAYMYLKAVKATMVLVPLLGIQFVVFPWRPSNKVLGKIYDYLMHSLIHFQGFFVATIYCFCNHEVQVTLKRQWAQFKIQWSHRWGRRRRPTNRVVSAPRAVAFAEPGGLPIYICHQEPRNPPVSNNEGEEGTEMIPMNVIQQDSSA

T3: rat amylin receptor (rat calcitonin receptor + rat RAMP 3) (rat, UniProt P32214 25-516; Q9JJ73 23-147)
T3 construct: whole, on cells; Membranes of BHK tk'ts 13 cells transiently transfected with the rat calcitonin receptor and rat RAMP 3; also called rAmylin-R; rat amylin 3(a) receptor
T3 sequence (looked up) 1: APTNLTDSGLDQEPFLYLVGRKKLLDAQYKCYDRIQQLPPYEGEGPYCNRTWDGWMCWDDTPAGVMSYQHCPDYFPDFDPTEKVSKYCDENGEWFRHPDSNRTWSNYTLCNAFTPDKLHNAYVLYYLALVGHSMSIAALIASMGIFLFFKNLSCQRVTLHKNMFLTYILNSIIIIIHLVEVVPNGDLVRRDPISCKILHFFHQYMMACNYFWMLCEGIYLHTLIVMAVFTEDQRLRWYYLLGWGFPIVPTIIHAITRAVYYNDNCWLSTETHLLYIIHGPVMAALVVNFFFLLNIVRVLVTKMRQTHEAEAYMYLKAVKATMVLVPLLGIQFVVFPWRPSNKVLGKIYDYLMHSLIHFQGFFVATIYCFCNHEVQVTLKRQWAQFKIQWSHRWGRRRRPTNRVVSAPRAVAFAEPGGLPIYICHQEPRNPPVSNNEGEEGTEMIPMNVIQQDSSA
T3 sequence (looked up) 2: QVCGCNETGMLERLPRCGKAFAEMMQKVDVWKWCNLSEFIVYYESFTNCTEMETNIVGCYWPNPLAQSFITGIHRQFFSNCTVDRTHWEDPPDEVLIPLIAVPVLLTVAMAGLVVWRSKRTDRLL


What was measured:
[1] = target: T1, human calcitonin receptor; assay: IC50 at hCTR divided by IC50 at hAmylin-R (reference)
Summary of the method: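 Competition binding by SPA uses membrane preparations (35 ng/μL final) in pH 7.4 Hepes buffer with 1 mM CaCl2 and 5 mM MgCl₂. Incubation lasts 120 min at 25° C, and IC₅₀ comes from one-site fitting.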

rat calcitonin receptor [2] = target: T2, rat calcitonin receptor; assay: IC50 at rCTR divided by IC50 at rAmylin-R (reference)
rat calcitonin receptor [3] = target: T2, rat calcitonin receptor; assay: SPA competition vs 125I-calcitonin, membranes with rat CTR (Assay VIII)
[4] = target: T3, rat amylin receptor (rat calcitonin …); assay: SPA competition vs 125I-rat amylin, membranes with rat CTR + rat RAMP3 (Assay VI)

| Binder | Ratio hCT/hAmylin binding [1] | Ratio rCT/rAmylin binding (rat calcitonin receptor [2]) | IC50 (rat calcitonin receptor [3]) [nM] | IC50 [4] [nM] |
| --- | --- | --- | --- | --- |
| K([AEEA-AEEA-γGlu-C20 diacid])CNTATCATQRLANFLRHSSPNFGAIPSSTNVGSETY-NH2 (disulfide 2-7; N-terminus assumed; SMILES CC[C@H](C)[C@H](NC(=O)[C@H](C)NC(=O)CNC(=O)[C@H](Cc1ccccc1)NC(=O)[C@H](CC(N)=O)NC(=O)[C@@H]1CCCN1C(=O)[C@H](CO)NC(=O)[C@H](CO)NC(=O)[C@H](Cc1c[nH]cn1)NC(=O)[C@H](CCCNC(=N)N)NC(=O)[C@H](CC(C)C)NC(=O)[C@H](Cc1ccccc1)NC(=O)[C@H](CC(N)=O)NC(=O)[C@H](C)NC(=O)[C@H](CC(C)C)NC(=O)[C@H](CCCNC(=N)N)NC(=O)[C@H](CCC(N)=O)NC(=O)[C@@H](NC(=O)[C@H](C)NC(=O)[C@@H]1CSSC[C@H](NC(=O)[C@@H](N)CCCCNC(=O)COCCOCCNC(=O)COCCOCCNC(=O)CC[C@H](NC(=O)CCCCCCCCCCCCCCCCCCC(=O)O)C(=O)O)C(=O)N[C@@H](CC(N)=O)C(=O)N[C@@H]([C@@H](C)O)C(=O)N[C@@H](C)C(=O)N[C@@H]([C@@H](C)O)C(=O)N1)[C@@H](C)O)C(=O)N1CCC[C@H]1C(=O)N[C@@H](CO)C(=O)N[C@@H](CO)C(=O)N[C@H](C(=O)N[C@@H](CC(N)=O)C(=O)N[C@H](C(=O)NCC(=O)N[C@@H](CO)C(=O)N[C@@H](CCC(=O)O)C(=O)N[C@H](C(=O)N[C@@H](Cc1ccc(O)cc1)C(N)=O)[C@@H](C)O)C(C)C)[C@@H](C)O, modifications are with respect to human amylin; also called compound 25) | 56.5 | 37.7 | 131 | 3.48 |
| K([γGlu-C20 diacid])CNTATCATQRLANFLRHSSPNFGAIPSSTNVGSETY-NH2 (disulfide 2-7; N-terminus assumed; SMILES CC[C@H](C)[C@H](NC(=O)[C@H](C)NC(=O)CNC(=O)[C@H](Cc1ccccc1)NC(=O)[C@H](CC(N)=O)NC(=O)[C@@H]1CCCN1C(=O)[C@H](CO)NC(=O)[C@H](CO)NC(=O)[C@H](Cc1c[nH]cn1)NC(=O)[C@H](CCCNC(=N)N)NC(=O)[C@H](CC(C)C)NC(=O)[C@H](Cc1ccccc1)NC(=O)[C@H](CC(N)=O)NC(=O)[C@H](C)NC(=O)[C@H](CC(C)C)NC(=O)[C@H](CCCNC(=N)N)NC(=O)[C@H](CCC(N)=O)NC(=O)[C@@H](NC(=O)[C@H](C)NC(=O)[C@@H]1CSSC[C@H](NC(=O)[C@@H](N)CCCCNC(=O)CC[C@H](NC(=O)CCCCCCCCCCCCCCCCCCC(=O)O)C(=O)O)C(=O)N[C@@H](CC(N)=O)C(=O)N[C@@H]([C@@H](C)O)C(=O)N[C@@H](C)C(=O)N[C@@H]([C@@H](C)O)C(=O)N1)[C@@H](C)O)C(=O)N1CCC[C@H]1C(=O)N[C@@H](CO)C(=O)N[C@@H](CO)C(=O)N[C@H](C(=O)N[C@@H](CC(N)=O)C(=O)N[C@H](C(=O)NCC(=O)N[C@@H](CO)C(=O)N[C@@H](CCC(=O)O)C(=O)N[C@H](C(=O)N[C@@H](Cc1ccc(O)cc1)C(N)=O)[C@@H](C)O)C(C)C)[C@@H](C)O, modifications are with respect to human amylin; also called compound 27) [N^ε1-[(4S)-4-carboxy-4-(19-carboxynonadecanoylamino)butanoyl]-[Arg17,Pro21,Pro27,Glu35]-h-amylin] | 41.3 | 147 | 90.2 | 0.614 |

Continued by falling IC50 (rat calcitonin receptor [3]), values first:

| Ratio hCT/hAmylin binding [1] | Ratio rCT/rAmylin binding (rat calcitonin receptor [2]) | IC50 (rat calcitonin receptor [3]) [nM] | IC50 [4] [nM] | Binder |
| --- | --- | --- | --- | --- |
| 47.5 | 309 | 152 | 0.491 | K([AEEA-γGlu-C20 diacid])CNTATCATQRLANFLRHSSPNFGAIPSSTNVGSETY-NH2 (disulfide 2-7; N-terminus assumed; SMILES CC[C@H](C)[C@H](NC(=O)[C@H](C)NC(=O)CNC(=O)[C@H](Cc1ccccc1)NC(=O)[C@H](CC(N)=O)NC(=O)[C@@H]1CCCN1C(=O)[C@H](CO)NC(=O)[C@H](CO)NC(=O)[C@H](Cc1c[nH]cn1)NC(=O)[C@H](CCCNC(=N)N)NC(=O)[C@H](CC(C)C)NC(=O)[C@H](Cc1ccccc1)NC(=O)[C@H](CC(N)=O)NC(=O)[C@H](C)NC(=O)[C@H](CC(C)C)NC(=O)[C@H](CCCNC(=N)N)NC(=O)[C@H](CCC(N)=O)NC(=O)[C@@H](NC(=O)[C@H](C)NC(=O)[C@@H]1CSSC[C@H](NC(=O)[C@@H](N)CCCCNC(=O)COCCOCCNC(=O)CC[C@H](NC(=O)CCCCCCCCCCCCCCCCCCC(=O)O)C(=O)O)C(=O)N[C@@H](CC(N)=O)C(=O)N[C@@H]([C@@H](C)O)C(=O)N[C@@H](C)C(=O)N[C@@H]([C@@H](C)O)C(=O)N1)[C@@H](C)O)C(=O)N1CCC[C@H]1C(=O)N[C@@H](CO)C(=O)N[C@@H](CO)C(=O)N[C@H](C(=O)N[C@@H](CC(N)=O)C(=O)N[C@H](C(=O)NCC(=O)N[C@@H](CO)C(=O)N[C@@H](CCC(=O)O)C(=O)N[C@H](C(=O)N[C@@H](Cc1ccc(O)cc1)C(N)=O)[C@@H](C)O)C(C)C)[C@@H](C)O, modifications are with respect to human amylin; also called compound 26) |
| 10.8 | 47.7 | 51.4 | 1.08 | K([AEEA-γGlu-C20 diacid])CNTATCATQRLANFLRHSSPNFGAIPSSTPVGSNTY-NH2 (disulfide 2-7; N-terminus assumed; SMILES CC[C@H](C)[C@H](NC(=O)[C@H](C)NC(=O)CNC(=O)[C@H](Cc1ccccc1)NC(=O)[C@H](CC(N)=O)NC(=O)[C@@H]1CCCN1C(=O)[C@H](CO)NC(=O)[C@H](CO)NC(=O)[C@H](Cc1c[nH]cn1)NC(=O)[C@H](CCCNC(=N)N)NC(=O)[C@H](CC(C)C)NC(=O)[C@H](Cc1ccccc1)NC(=O)[C@H](CC(N)=O)NC(=O)[C@H](C)NC(=O)[C@H](CC(C)C)NC(=O)[C@H](CCCNC(=N)N)NC(=O)[C@H](CCC(N)=O)NC(=O)[C@@H](NC(=O)[C@H](C)NC(=O)[C@@H]1CSSC[C@H](NC(=O)[C@@H](N)CCCCNC(=O)COCCOCCNC(=O)CC[C@H](NC(=O)CCCCCCCCCCCCCCCCCCC(=O)O)C(=O)O)C(=O)N[C@@H](CC(N)=O)C(=O)N[C@@H]([C@@H](C)O)C(=O)N[C@@H](C)C(=O)N[C@@H]([C@@H](C)O)C(=O)N1)[C@@H](C)O)C(=O)N1CCC[C@H]1C(=O)N[C@@H](CO)C(=O)N[C@@H](CO)C(=O)N[C@H](C(=O)N1CCC[C@H]1C(=O)N[C@H](C(=O)NCC(=O)N[C@@H](CO)C(=O)N[C@@H](CC(N)=O)C(=O)N[C@H](C(=O)N[C@@H](Cc1ccc(O)cc1)C(N)=O)[C@@H](C)O)C(C)C)[C@@H](C)O, modifications are with respect to human amylin; also called compound 49) |
